According to patent US12465646B2, “Linkers” (Oxford University Innovation Limited, priority 2018, dated 2025):
Where no end group is shown, it is not given here. [ ]: non-standard residue; d: D form. GABA = NCCCC(=O)O; βAla = NCCC(=O)O

Tests used:
[1] = tested on: exon skipping; details: in a conjugate with a therapeutic molecule; cited from earlier work
[2] = CPP carrier; cited from earlier work
[3] = Recovery time of mice after intravenous injection of peptide-PMO-CAG7; type: in vivo, C57BL6 mice
Description: Animal experiments and ASO injections. Experiments were carried out in the University of Oxford according to UK legislation. The intravenous injections in HSA-LR C57BL/6 mice were performed by single or repeated administrations via the tail vein. Doses of 30, 12.5, 7.5 and 5 mg/kg of peptide-PMO-CAG7 (SEQ ID NO: 81) were diluted in 0.9% saline and given at a volume of 5-6 μL/g of body weight. KIM-1 levels in C57BL6 female mice measured by ELISA (R&D cat #MKM100) with samples diluted to fit within standard curve. Values were normalised to urinary creatinine levels (Harwell) to account for urine protein concentration.

[4] = tested on: human hepatocytes; experiment: Hepatocyte cell viability; type: cell-based; details: 40 μM
Description: Immortalized myoblasts from healthy individual or DM1 patient with 2600 CTG repeats were cultivated in a growth medium consisting of a mix of M199:DMEM (1:4 ratio; Life technologies) supplemented with 20% FBS (Life technologies), 50 μg/ml gentamycin (Life technologies), 25 μg/ml fetuin, 0.5 ng/ml bFGF, 5 ng/ml EGF and 0.2 μg/ml dexamethasone (Sigma-Aldrich). Myogenic differentiation was induced by switching confluent cell cultures to DMEM medium supplemented with 5 μg/ml insulin (Sigma-Aldrich) for myoblasts. For treatment, WT or DM1 cells are differentiated for 4 days. Then, medium was changed with fresh differentiation medium with peptide-PMOs at a 1, 2, 5 10, 20 or 40 μM concentration. Cells were harvested for analysis 48 h after treatment. Cell viability was quantified in after 2 days of transfection of peptide-PMOs at 40 μM in human hepatocytes or at a 1, 2, 5 10, 20 or 40 μM concentration in human myoblasts using a fluorescent-based assay (Promega).

Question: What does the source list for “Ac-RRRRRR-(G) (Ac-RRRRRRG; also: conjugated therapeutic molecule via glycine linker) [R6Gly]”?
Answer: efficacy in inducing exon skipping [1]: reduced efficacy; toxicity [2]: reduced toxicity

Question: For “Ac-RBRRBRFQILYBRBR-E (Ac-R[βAla]RR[βAla]RFQILY[βAla]R[βAla]RE; also: Glu linker to [CAG]7 PMO, attachment not given here) [DPEP1.9b]”, which “recovery time after injection, time AV ± SD” value (“recovery time … time AV ± SD” below) ([3]; 30 mg/kg, WT mouse, 8-12 weeks) is on record?
Answer: 15 min

Question: Which “recovery time … time AV ± SD” value ([3]; 30 mg/kg, WT mouse, 8-12 weeks) does the source give for “Ac-RBRRBRRFQILYRBHBH-Ab (Ac-R[βAla]RR[βAla]RRFQILYR[βAla]H[βAla]H-{GABA-(CAG)7 PMO}) [DPEP3.1a]” here?
Answer: 10 min

Question: Which “percentage hepatocyte cell viability” value [4] does the source give for “Ac-RXRRBRRXR-YQFLI-RXRBRXR-(B) [pip6a, reference compound]” here?
Answer: cell mortality

Question: And the “recovery time … time AV ± SD” value ([3]; 12.5 mg/kg, HSA-LR mouse, 8-12 weeks)?
Answer: >60 min

Question: Which “recovery time … time AV ± SD” value ([3]; 7.5 mg/kg, HSA-LR mouse, 8-12 weeks) does the source give for Ac-RBRRBRFQILYBRBR-B [DPEP1.9] here?
Answer: 0 min

Question: And the “recovery time … time AV ± SD” value ([3]; 30 mg/kg, HSA-LR mouse, 30 weeks)?
Answer: >60 min

Question: What about the “recovery time … time AV ± SD” value ([3]; 4× 7.5 mg/kg repeated injections, HSA-LR mouse, 8-12 weeks) of the same substance?
Answer: 0 min

Question: And the “recovery time … time AV ± SD” value ([3]; 6× 5 mg/kg repeated injections, HSA-LR mouse, 8-12 weeks)?
Answer: 0 min
